From patent publication US6828106B2, “Methods and compositions using coiled binding partners” (Cyclacel Limited, priority 1999, dated 2004)

How the values were obtained:
TEV protease [1] = molecular target: T1, TEV protease (Tobacco etch virus, UniProt P04517); experiment: TEV protease FP assay with homodimer-forming reporter peptide; assay type: biochemical; settings: substrate: fluorescein/biotin-labeled reporter peptide homodimer; FIG. 10; read-out: Km of TEV protease by FP analysis
T1 construct: Proteolytic cleavage was initiated by the addition of TEV protease (20U, Gibco Life Technologies); histidine tag; purchased Gibco Life Technologies
Experimental: (§1) TEV protease activity and inhibition of TEV protease activity was determined by using a peptide capable of forming a homodimer, wherein homodimer formation is decreased following TEV protease cleavage of the peptide, according to the following method.
For FP analysis the reporter peptide (sequence recited above) was labeled with fluorescein or with biotin. The labeled peptides were incubated at a total peptide concentration of 6 μM (6:1 ratio, biotin:F) in 50 mM Tris, pH 8, 0.5 mM EDTA, 0.1 mg/ml BSA and 1 mM DTT at 30° C. for 5 minutes in a total volume of 100 μl. Proteolytic cleavage was initiated by the addition of TEV protease (20U), and monitored during the reaction time course by measuring the polarization of fluorescein (excitation 485 nm, emission 520 nm) over time. Initial rates of change of fluorescein polarization were determined for the linear portion of the reaction.
(§2) The activity of the TEV protease inhibitor iodacetamide was determined by FRET or FP assays performed as described above in the absence of iodacetamide or in the presence of 0.05-100 mM iodacetamide added prior to the addition of TEV protease. The results of these experiments are presented in FIG. 9 (FRET assay) and FIG. 11 (FP assay).

TEV protease [2] = molecular target: T1, TEV protease; experiment: TEV protease FRET assay with homodimer-forming reporter peptide; assay type: biochemical; settings: substrate: fluorescein/rhodamine-labeled reporter peptide homodimer; FIG. 8; read-out: Km of TEV protease by FRET analysis
Experimental: as §1
For FRET analysis the reporter peptide (KGR MRCLEDR VENLYSQ SYHLENE VARLRRL VGELAAK) (SEQ ID NO: 32) was labeled with fluorescein or rhodamine. The labeled peptides were incubated at a total peptide concentration of 6 μM (6:1 ratio, R:F) in 50 mM Tris pH 8, and 0.5 mM EDTA, and 1 mM DTT at 30° C. for 15 minutes in a total volume of 100 μl. Proteolytic cleavage was initiated by the addition of TEV protease (20U, Gibco Life Technologies), and monitored during the time course of the reaction by measuring the emission of fluorescein (excitation 485 nm, emission 520 nm) over time. Initial rates of change of fluorescein emission were determined for the linear portion of the reaction.
as §2

B1: TEV protease: Tobacco Etch Virus protease, Gibco Life Technologies (protein)
chain: GESLFKGPRDYNPISSTICHLTNESDGHTTSLYGIGFGPFIITNKHLFRRNNGTLLVQSLHGVFKVKNTTTLQQHLIDGRDMIIIRMPKDFPPFPQKLKFREPQREERICLVTTNFQTKSMSSMVSDTSCTFPSSDGIFWKHWIQTKDGQCGSPLVSTRDGFIVGIHSASNFTNTNNYFTSVPKNFMELLTNQEAQQWVSGWRLNADSVLWGGHKVFMSKPEEPFQPVKEATQLMNELVYSQ
Km (TEV protease [1]): 36 µM
Km (TEV protease [2]): 36 µM
